Measured values reported in article PMC9331743, “Portable Vertical Graphene@Au-Based Electrochemical Aptasensing Platform for Point-of-Care Testing of Tau Protein in the Blood”.

Target: Tau441 (tau protein) (UniProt P10636-8 1-441)
Assay: electrochemical aptasensor (DPV); aptamer on VG@Au electrode, MCH blocked; LOD 0.034 pg/mL, linear 0.1 pg/mL-1 ng/mL (not a Kd); Tau in PBS (10 mM, pH 7.4), 1 h at 37 C on electrode; DPV read in 5 mM Fe(CN)6 3-/4- with 0.1 M KCl
Settings: protein: commercial

Tau441 (tau protein), sequence (P10636 other isoform, or with tags, fused parts or gaps): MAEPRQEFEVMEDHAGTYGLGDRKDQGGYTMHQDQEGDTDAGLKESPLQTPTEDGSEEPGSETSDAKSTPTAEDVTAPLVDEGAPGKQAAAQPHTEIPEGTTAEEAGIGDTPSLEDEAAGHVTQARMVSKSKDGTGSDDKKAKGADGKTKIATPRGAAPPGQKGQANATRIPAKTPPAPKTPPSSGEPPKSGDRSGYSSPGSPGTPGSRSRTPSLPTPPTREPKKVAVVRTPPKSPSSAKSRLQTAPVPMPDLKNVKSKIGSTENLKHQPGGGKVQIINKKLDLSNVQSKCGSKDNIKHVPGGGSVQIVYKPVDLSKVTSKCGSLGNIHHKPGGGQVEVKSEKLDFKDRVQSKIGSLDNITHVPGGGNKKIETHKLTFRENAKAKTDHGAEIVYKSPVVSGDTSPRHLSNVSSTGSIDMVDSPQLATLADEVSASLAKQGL

B1: tau DNA aptamer (ssDNA)
DNA: CAGCACCGTCAACTGAATGGGTTGGCCGGGCAGCGGGGGGTAGGCTGGTGATGCGATGGAGATGT
modifications: 5' SH-(CH2)6 thiol linker
binding result: binds
